Biological target: the molecule itself
Assay: SEC + other: cryo-EM 2D class averages; truncated modifying region purified by Ni-NTA and Superdex 200 increase 10/300; 2D classes of elution fraction 3

B1: isolated modifying region of hFASN expressed and purified as an independent construct (G855 to G2511) (domain or fragment, human, UniProt P49327 855-2511, looked up)
chain: GSPSAAIYNIDTSSESPDHYLVDHTLDGRVLFPATGYLSIVWKTLARALGLGVEQLPVVFEDVVLHQATILPKTGTVSLEVRLLEASRAFEVSENGNLVVSGKVYQWDDPDPRLFDHPESPTPNPTEPLFLAQAEVYKELRLRGYDYGPHFQGILEASLEGDSGRLLWKDNWVSFMDTMLQMSILGSAKHGLYLPTRVTAIHIDPATHRQKLYTLQDKAQVADVVVSRWLRVTVAGGVHISGLHTESAPRRQQEQQVPILEKFCFTPHTEEGCLSERAALQEELQLCKGLVQALQTKVTQQGLKMVVPGLDGAQIPRDPSQQELPRLLSAACRLQLNGNLQLELAQVLAQERPKLPEDPLLSGLLDSPALKACLDTAVENMPSLKMKVVEVLAGHGHLYSRIPGLLSPHPLLQLSYTATDRHPQALEAAQAELQQHDVAQGQWDPADPAPSALGSADLLVCNCAVAALGDPASALSNMVAALREGGFLLLHTLLRGHPLGDIVAFLTSTEPQYGQGILSQDAWESLFSRVSLRLVGLKKSFYGSTLFLCRRPTPQDSPIFLPVDDTSFRWVESLKGILADEDSSRPVWLKAINCATSGVVGLVNCLRREPGGNRLRCVLLSNLSSTSHVPEVDPGSAELQKVLQGDLVMNVYRDGAWGAFRHFLLEEDKPEEPTAHAFVSTLTRGDLSSIRWVCSSLRHAQPTCPGAQLCTVYYASLNFRDIMLATGKLSPDAIPGKWTSQDSLLGMEFSGRDASGKRVMGLVPAKGLATSVLLSPDFLWDVPSNWTLEEAASVPVVYSTAYYALVVRGRVRPGETLLIHSGSGGVGQAAIAIALSLGCRVFTTVGSAEKRAYLQARFPQLDSTSFANSRDTSFEQHVLWHTGGKGVDLVLNSLAEEKLQASVRCLATHGRFLEIGKFDLSQNHPLGMAIFLKNVTFHGVLLDAFFNESSADWREVWALVQAGIRDGVVRPLKCTVFHGAQVEDAFRYMAQGKHIGKVVVQVLAEEPEAVLKGAKPKLMSAISKTFCPAHKSYIIAGGLGGFGLELAQWLIQRGVQKLVLTSRSGIRTGYQAKQVRRWRRQGVQVQVSTSNISSLEGARGLIAEAAQLGPVGGVFNLAVVLRDGLLENQTPEFFQDVCKPKYSGTLNLDRVTREACPELDYFVVFSSVSCGRGNAGQSNYGFANSAMERICEKRRHEGLPGLAVQWGAIGDVGILVETMSTNDTIVSGTLPQRMASCLEVLDLFLNQPHMVLSSFVLAEKAAAYRDRDSQRDLVEAVAHILGIRDLAAVNLDSSLADLGLDSLMSVEVRQTLERELNLVLSVREVRQLTLRKLQELSSKADEASELACPTPKEDGLAQQQTQLNLRSLLVNPEGPTLMRLNSVQSSERPLFLVHPIEGSTTVFHSLASRLSIPTYGLQCTRAAPLDSIHSLAAYYIDCIRQVQPEGPYRVAGYSYGACVAFEMCSQLQAQQSPAPTHNSLFLFDGSPTYVLAYTQSYRAKLTPGCEAEAETEAICFFVQQFTDMEHNRVLEALLPLKGLEERVAAAVDLIIKSHQGLDRQELSFAARSFYYKLRAAEQYTPKAKYHGNVMLLRAKTGGAYGEDLGADYNLSQVCDGKVSVHVIEGDHRTLLEGSGLESIISIIHSSLAEPRVSVREG
notes: human fatty acid synthase (FASN), residues G855 to G2511, modifying region (DH, ΨME, ΨKR, ER, KR, ACP, TE); also called truncated modifying region; truncated hFASN modifying region; source: HEK293F, transfected (pcDNA3.1, gene synthesized by GenScript), purified (Ni-NTA, Superdex 200)
stoichiometry N: 2

Source: publication PMC10258763, “Atomic model for core modifying region of human fatty acid synthase in complex with Denifanstat” (Nature Communications, 2023)
